One series has as its target RANKL. In words: cell-based or functional assay.
The subject of series [1] is miRNA expression in RAW264.7 cells. In words: qRT-PCR of osteoclast miRNA expression after sICAM1 treatment. The following applies: for sICAM1-induced miRNA expression changes: 50 ng/ml sICAM1, 20 μM inhibitor, 6 days. It is filed as cell-based, murine. The method, then:
(§1) mRNA was analyzed by synthesizing cDNA using the Superscript III First-strand kit (Invitrogen) and qPCR performed using the Power SYBR® green PCR master mix (Applied Biosystems). Mature miRNAs were reverse transcribed using the TaqMan Reverse Transcription Kit (Applied Biosystems) followed by real-time PCR using TaqMan miRNA assays (Applied Biosystems). All analysis was performed using an ABI 7900HT PCR machine according to the manufacturer's instructions. A standard curve was created from serial dilutions from cDNA for each gene of interest. Values were normalized by the expression of GAPDH or RNU6B in each sample.

The subject of series [2] is RAW264.7 cells. Nature of the series: RANKL-induced osteoclast differentiation, TRAP staining. It is filed as cell-based, murine. As to conditions: for osteoclast differentiation / TRAP+ osteoclasts: 6 days. An excerpt: HeLa and RAW264.7 cells (American Type Culture Collection, ATCC) were maintained in Dulbecco's modified Eagle's medium (DMEM) supplemented with 10% fetal bovine serum (FBS), penicillin/streptomycin (GIBCO), and fungizone. MOCP-5 cells were maintained in αMEM with 10% FBS and antibiotics. MDA-MB-231 parental cells (ATCC) and all sublines (SCP2, SCP4, SCP6, SCP28, SCP46) were maintained in DMEM with 10% FBS and antibiotics. The murine 4T1 and 4T1.2 cells, and human TSU-Pr1, and TSU-PR1-B2 cells were similarly maintained in DMEM with 10% FBS and antibiotics. For osteoclast differentiation assays, cells were treated with indicated concentration of RANKL in DMEM plus 10% FBS, with media changes performed every 2 days. Primary osteoclasts were isolated from bone marrow cells flushed from the tibia of 6-week-old wild type Balb/c mice and filtered through a […] cell-strainer before overnight culture in aMEM with 10% FBS. The following day 1×10^6 non-adherent cells were plated in 6-well plates supplemented with 50 ng/mL M-CSF for 2 days, followed by 50 ng/mL RANKL for an additional 4-5 days, with media changes every 2 days. Human osteoclasts were obtained from Lonza (2T-110) and differentiated by treatment with 33 ng/ml M-CSF and 66 ng/ml RANKL. CM was collected from the indicated sub-confluent tumor cells grown in DMEM with […] for 24 hours. The CM was passed through a 0.2 μm filter before addition to 1×10^5 RAW264.7 or MOCP-5 cells in a 6-well plate. The media was replaced with fresh CM daily. Cells were TRAP stained on day 6 using a leukocyte acid phosphatase kit (Sigma) and TRAP^+-multineucliated cells were quantified as mature osteoclasts. […]

Series [3] has as its system RAW264.7 cells. In words: In vitro bone resorption assay on bovine bone slices. It is filed as cell-based, murine. As to conditions: miRNA transfection, 50 ng/ml RANKL, relative to control cells. The method, then:
5×10^4 pre-osteoclast cells were seeded onto 1 mm thick slices of bovine bone cut using a diamond saw and sterilized by immersion in 70% ethanol. Cells were cultured for 10 days as indicated in 6-well plates, transferred to fresh plates and washed to remove osteoclasts. Bone slices were stained in a solution of 1% toludine blue in 0.5% sodium tetraborate, destained in PBS plus 1% Triton X-100, and imaged by light microscopy.
In vitro bone resorption assay was then used to measure the effect of ectopic miRNA expression on osteoclast activity. […] Referring to this figures, scale bar represents 200 μm. Results were statistically significant with p<0.01 (**) and p<0.001 (***). […] Since these miRNAs may inhibit osteoclast differentiation or function by targeting different mRNAs, the repression of osteoclast differentiation was further examined using combinations of inhibitory miRNAs. Given that transient transfection with 10 pM of miRNA precursors was sufficient to inhibit up to approximately 90% of osteoclast differentiation, RAW264.7 cells were treated with a combination of miRNAs at a reduced concentration of 1 pM total precursors.

In series [4] the test system is Pu.1, Nfatc1, Ctsk in RAW264.7 cells. Nature of the series: Western blot of Pu.1, Nfatc1, Ctsk after miRNA transfection and RANKL. The format is cell-based, murine. As to conditions: transient miRNA transfection, 50 ng/ml RANKL. The method, then: SDS lysis buffer (0.05 mM Tris-HCl, 50 mM BME, 2% SDS, 0.1% Bromophenol blue, 10% glycerol) was used to collect protein from cells. Samples were sonicated and heat denatured protein was equally loaded, separated on a 10% SDS-page gel, transferred onto a pure nitrocellulose membrane (BioRad), and blocked with 5% milk. Primary antibodies for immunoblotting included: anti-IκBα (1:1000 dilution, Cell signaling, 44D4), anti-p-p65 (1:500 dilution, Santa Cruz Biotechnology), anti-Pu.1 (5 μg/ml, Abcam, AB88082), anti-Nfatc1 (1 μg/ml, Abcam, AB25916), anti-Ctsk (4 μg/ml, Abcam, AB19027), anti-β-actin (1:5000 dilution, ABcam), for loading control. Membranes were incubated with horseradish peroxidase (HRP)-conjugated anti-mouse secondary antibody (1:2000 dilution, GE Healthcare) or anti-rabbit secondary antibody (1:2000 dilution, GE Healthcare) for 1 h and chemiluminescence signals were detected by ECL substrate (GE Healthcare).
To better examine the capacity of the miRNAs to inhibit osteoclast differentiation, osteoclast markers were examined in RAW264.7 cells transfected with the miRNA of interest, followed by RANKL treatment. FIG. 5F illustrates Western blot analysis for Pu.1, Nfatc1, or Ctsk in RAW264.7 cells after transient transfection with indicated miRNA and treatment with 50 ng/ml RANKL. Data in the figure represent average ±SEM; p values were based on Student's t-test.
A general note: In western blotting, separated proteins are transferred to a membrane and probed.

Series [5] has as its system osteoclast marker genes in RAW264.7 cells. In words: qRT-PCR of osteoclast marker genes. The format is cell-based, murine. The following applies: sICAM1 together with 50 ng/ml RANKL versus RANKL alone. The protocol: as §1
Background: In qPCR the cycle at which signal appears reflects the starting amount.

Series [6] relates to RAW264.7 cells. In words: Chemotaxis assay of RAW264.7 cells. It is filed as cell-based, murine. The following applies: series of sICAM1 concentrations. The method, then: Chemotaxis assay was performed as described (Lu et al., 2011) with the following modifications: 10^5 RAW264.7 cells in 100 μl of 0.5% BSA in DMEM were seeded into the upper chamber of 8 μm pore transwell inserts (BD Bioscience) in a 24-well plate. 300 μl of 0.5% BSA in DMEM containing a series of concentrations of recombinant ICAM1 (R&D Systems) was added to the bottom chamber. After 8 h in culture, methanol was added to the bottom chamber to fix migrated cells. Cells in the upper chamber were removed with a cotton swab and stained for 30 mins in 0.2% crystal violet for quantification using a microscope.

For OPG (receptor), in the series with RANKL, the decrease in osteoclast differentiation of RAW264.7 cells induced by 30 ng/ml RANKL, with 200 ng/ml OPG is greater than 80%.

Turning to `O=C(Nc1cc(Cl)cc2c1[nH]c1cnccc12)c1cccnc1` [PS1145], the “sICAM1-induced miRNA expression changes” value in series [1] was “abrogated”; in series [1] (listed as PS1154), “higher levels of miRNA expression”.

B1: miR-33a: miRNA, SEQ ID NO: 74; delivered as pre-miRNA precursor; down-regulated during osteoclastogenesis (nucleic acid, listed as Homo sapiens)
chain: CUGUGGUGCAUUGUAGUUGCAUUGCAUGUUCUGGUGGUACCCAUGCAAUGUUUCCACAGUGCAUCACAG
modifications: pre-miRNA precursor hairpin, chemistry not given here
As to B1, the “osteoclast maturation and activity” value in the series with RAW264.7 cells [2] (all models tested) is reported as “Partial inhibition”. Also, the “bone resorption (osteoclast activity)” value in the series on RAW264.7 cells [3] is recorded as “only a small decrease in bone resorption”. The “expression of Pu.1, Nfatc1, Ctsk (Western blot)” value in series [4] is listed as “retained expression of all three osteoclast genes”.

B2: sICAM1: soluble ICAM1, the cleaved extracellular domain of ICAM1; recombinant ICAM1 (R&D Systems, 796-IC-050) (protein)
chain: QVSIHPREAFLPQGGSVQVNCSSSCKEDLSLGLETQWLKDELESGPNWKLFELSEIGEDSSPLCFENCGTVQSSASATITVYSFPESVELRPLPAWQQVGKDLTLRCHVDGGAPRTQLSAVLLRGEEILSRQPVGGHPKDPKEITFTVLASRGDHGANFSCRTELDLRPQGLALFSNVSEARSLRTFDLPATIPKLDTPDLLEVGTQQKLFCSLEGLFPASEARIYLELGGQMPTQESTNSSDSVSATALVEVTEEFDRTLPLRCVLELADQILETQRTLTVYNFSAPVLTLSQLEVSEGSQVTVKCEAHSGSKVVLLSGVEPRPPTPQVQFTLNASSEDHKRSFFCSAALEVAGKFLFKNQTLELHVLYGPRLDETDCLGNWTWQEGSQQTLKCQAWGNPSPKMTCRRKADGALLPIGVVKSVKQEMNGTYVCHAFSSHGNVTRNVYLTVLYHSQNN
As to B2, the osteoclast differentiation result in the series on RAW264.7 cells [2] (50 ng/ml sICAM1 alone) is given as “not sufficient to induce differentiation”; in the series on RAW264.7 cells [2] (50 ng/ml sICAM1 combined with 10 ng/ml RANKL) it was “additive effect”. For the same molecule, the “time to osteoclast differentiation” value in the series on RAW264.7 cells [2] (50 ng/ml sICAM1 and 50 ng/ml RANKL together) is no more than 2 days. Besides, the figures for the “TRAP+ osteoclasts” value with RAW264.7 cells [2] (50 ng/ml sICAM1 with 4 ng/ml RANKL) and in the series with RAW264.7 cells [2] (low levels of sICAM1 with 4 ng/ml RANKL) were “high levels” and “no effect”, respectively. In addition, the “time course of osteoclast marker gene expression” value in series [5] is recorded as “reduced the time necessary for osteoclast differentiation”. Moreover, the RAW264.7 cell migration result in the series on RAW264.7 cells [6] is given as “increased migration in a dose dependent manner”. In addition, the “expression of miRNAs downregulated during osteoclastogenesis” value in series [1] (50 ng/ml sICAM1, magnified after co-treatment with RANKL) was “significant inhibition”.

The values above are taken from US20160017326A1, “MICRORNAS AS FUNCTIONAL MEDIATORS AND BIOMARKERS OF BONE METASTASIS” (THE TRUSTEES OF PRINCETON UNIVERSITY, priority 2013, published 2016).
